Where a chain is given by its changes, count along the chain named.
B1: Antibody 46 (scFv, V domains shown)
VH: QVQLVQSGAEVKKPGASVKVSCKASGYTFSSYAISWVRQAPGQGLEWMGWMDPNSGNTGYAQKFQGRVTMTRDTSTSTVYMELSSLRSEDTAVYYCARESSYYYDSSGYYPGWYFDLWGRGTLVTVSS
VL: DIQMTQSPSSLSASVGDRVTITCQASQDISNYLNWYQQKPGKAPKLLIYAASTLQTGVPSRFSGSGSGTDFTLTISSLQPEDFATYYCQQSYSTPWTFGPGTKVDIK
notes: scFv in crude PPE, V5/myc-tagged
B2: Antibody 12 (scFv, V domains shown)
VH: QVQLVQSGAEVKKPGASVKVSCKASGGTFGSYGINWVRQAPGQGLEWMGWISAYNGNTNYAQKLQGRVTMTRDTSTSTVYMELSSLRSEDTAVYYCARDGIDYGGNSGYDYWGQGTLVTVSS
VL: B1 VL with Q24R, D28N, S30R, T53S, T56G, S93N, T94G, W96Y, P100Q, D105E
notes: as for B1
B3: Antibody 11 (scFv, V domains shown)
VH: QVQLVQSGAEVKKPGASVKVSCKASGYTFTSYDINWVRQAPGQGLEWMGWMNPNSGNTGYAQKFQGRVTMTRDTSTSTVYMELSSLRSEDTAVYYCAKGAVAGTYYYYGMDVWGQGTTVTVSS
VL: DIQMTQSPSSLSASVGDRVTITCRASQTINNYLNWYQQKPGKAPKLLIYDASNLETGVPSRFSGSGSGTDFTLTISSLQPEDFATYYCQQANSFPLTFGQGTKVEIK
notes: as for B1
B4: Antibody 68 (antibody, V domains shown)
VH: QVQLVQSGAEVKKPGASVKVSCKASGYTFTSYYMYWVRQAPGQGLEWMGWINPNSGNTGYAQKFQGRVTMTRDTSTSTVYMELSSLRSEDTAVYYCAKDRRRGVGLAAAGTSAFDIWGQGTMVTVSS
VL: B1 VL with Q24R, D28S, Y32W, N34A, T53S, T56S, W96Y, P100Q, V104L, D105E
B5: Antibody 72 (antibody, V domains shown)
VH: QVQLVQSGAEVKKPGASVKVSCKASGYTFTDNYLHWVRQAPGQGLEWMGIIETSGGSTDYAQKFQGRVTMTRDTSTSTVYMELSSLRSEDTAVYYCARSFGGYSYDDAFDIWGQGTTVTVSS
VL: B1 VL with D28G, T53S, T56S, T94S, W96Y, P100Q, D105E
B6: Antibody 70 (antibody, V domains shown)
VH: QVQLVQSGAEVKKPGASVKVSCKASGYTFSNYYMHWVRQAPGQGLEWMGWMNPNSGNTGYAQKFQGRVTMTRDTSTSTVYMELSSLRSEDTAVYYCARASMYSSSGFDYWGQGTLVTVSS
VL: DIVMTQSPLSLPVTPGEPASISCRSSQSLLHSNGYNYLDWYLQKPGQSPQLLIYLASTRAPGVPDRFSGSGSGTDFTLKISRVEAEDVGVYYCMQGSHWPPSFGQGTRLEIK
B7: Antibody 59 (antibody, V domains shown)
VH: QVQLVQSGAEVKKPGASVKVSCKASGYTFTSYDINWVRQAPGQGLEWMGWMNPNSGNTGYAQKFQGRVTMTRDTSTSTVYMELSSLRSEDTAVYYCARESYAYCSSTSCYDAFDIWGQGTMVTVSS
VL: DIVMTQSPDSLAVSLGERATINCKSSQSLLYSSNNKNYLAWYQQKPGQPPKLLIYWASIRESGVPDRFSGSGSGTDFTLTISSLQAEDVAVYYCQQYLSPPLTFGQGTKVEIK
B8: Antibody 63 (antibody, V domains shown)
VH: QVQLVQSGAEVKKPGASVKVSCKASGYTFTGYYMHWVRQAPGQGLEWMGIINPSGGSTNYAQKFQGRVTMTRDTSTSTVYMELSSLRSEDTAVYYCARGPIGYGMDVWGQGTLVTVSS
VL: DIQMTQSPSSLSASVGDRVTITCRASQGIGNDLGWYQQKPGKAPKLLIYAASNLETGVPSRFSGSGSGTDFTLTISSLQPEDFATYYCLQHHSYPFTFGQGTKLEIK

The binders below were run against T1, human SIRPβ1 on CHO cells (co-transfected with DAP12) (human, UniProt O00241 30-398) (assay: flow cytometry).
T1 construct: whole, on cells; co-transfected with DAP12; also called Human SIRPβ1 CHO
T1 sequence (O00241 30-398): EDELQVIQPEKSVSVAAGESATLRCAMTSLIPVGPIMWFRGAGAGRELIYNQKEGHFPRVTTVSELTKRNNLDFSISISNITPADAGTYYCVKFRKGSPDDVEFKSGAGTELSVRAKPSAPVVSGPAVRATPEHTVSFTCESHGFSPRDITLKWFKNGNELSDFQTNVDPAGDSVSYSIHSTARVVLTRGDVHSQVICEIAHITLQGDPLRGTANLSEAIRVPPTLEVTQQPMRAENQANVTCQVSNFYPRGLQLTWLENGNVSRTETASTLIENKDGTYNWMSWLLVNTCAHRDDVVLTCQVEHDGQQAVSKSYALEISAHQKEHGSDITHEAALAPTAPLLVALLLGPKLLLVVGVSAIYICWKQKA

Binder	binding result
B1	no binding (tested: fold change <2.0)
B2	no binding (tested: fold change <2.0)
B3	no binding (tested: fold change <2.0)

Target: T2, cynomolgus monkey SIRPγ on CHO cells (cynomolgus monkey, UniProt Q9P1W8 29-386 (human entry))
T2 construct: also called Cyno SIRPγ CHO
T2 chain: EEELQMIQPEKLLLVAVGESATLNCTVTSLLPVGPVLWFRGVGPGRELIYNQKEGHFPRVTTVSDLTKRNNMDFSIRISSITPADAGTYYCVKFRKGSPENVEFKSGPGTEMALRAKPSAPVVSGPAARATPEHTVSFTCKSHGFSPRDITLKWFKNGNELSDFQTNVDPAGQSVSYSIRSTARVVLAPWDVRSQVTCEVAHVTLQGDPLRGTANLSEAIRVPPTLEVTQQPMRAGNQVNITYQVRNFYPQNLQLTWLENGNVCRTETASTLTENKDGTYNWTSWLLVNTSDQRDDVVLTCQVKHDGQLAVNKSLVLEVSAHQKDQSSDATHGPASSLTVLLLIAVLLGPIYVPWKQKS
Assay: flow cytometry, myc-scFv PPE
Description: (§1) Selected antibodies were tested for binding to stably transfected human SIRPγ, SIRPαV1, or SIRPβ1 (co-transfected with DAP12) Chinese hamster ovary (CHO) cells via flow cytometry. A titration of select antibodies was added to the cells and detected using a fluorescently labelled secondary anti-rat IgG antibody or anti-human IgG antibody. Graphs depict the median fluorescence intensity (MFI) at each concentration. FIGS. 5A and 5G show the binding curves of select antibodies to human SIRPγ, cynomolgus monkey SIRPγ, human SIRPα, cynomolgus monkey SIRPα, human SIRPβ1, or cynomolgus monkey SIRPβl-expressing CHO cells detected using an anti-rat IgG antibody. FIGS. 5B-5F and 5H-5L show the binding curves of select antibodies to human SIRPγ, cynomolgus monkey SIRPγ, human SIRPα, cynomolgus monkey SIRPα, human SIRPβ1, or cynomolgus monkey SIRPβ1-expressing CHO cells detected using an anti-human IgG antibody. […] For select antibodies, each myc-tagged SIRPγ scFv antibody as crude PPE was incubated with each of the SIRP-expressing cell lines stated above along with the parental CHO-K1 cell line. […] Fold change value <2.0 is considered a non-binder.

Binder	MFI fold change over parental CHO [fold]
B1	16
B2	5.94
B3	6.18

Each binder was assayed against T3, human SIRPγ on stably transfected CHO cells (human, UniProt Q9P1W8 29-387) (assay: flow cytometry, myc-scFv PPE).
T3 construct: also called Human SIRPγ CHO
Description: as §1

T3 sequence (Q9P1W8 29-387 limits assumed): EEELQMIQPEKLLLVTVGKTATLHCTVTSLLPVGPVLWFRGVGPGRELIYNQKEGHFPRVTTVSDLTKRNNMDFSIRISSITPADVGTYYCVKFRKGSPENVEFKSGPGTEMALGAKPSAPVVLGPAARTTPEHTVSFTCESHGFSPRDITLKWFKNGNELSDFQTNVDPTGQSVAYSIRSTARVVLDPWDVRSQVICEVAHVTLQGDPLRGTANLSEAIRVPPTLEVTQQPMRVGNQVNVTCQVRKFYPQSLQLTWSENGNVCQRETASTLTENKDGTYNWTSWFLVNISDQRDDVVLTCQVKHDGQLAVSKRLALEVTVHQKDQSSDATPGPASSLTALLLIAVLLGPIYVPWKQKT

Binder	MFI fold change over parental CHO [fold]
B1	13.1
B2	10.7
B3	3.98

Target: T4, cynomolgus monkey SIRPγ-His monomer protein (cynomolgus monkey, UniProt Q9P1W8 29-359 (human entry), limits assumed)
T4 construct: also called Cyno SIRPγ; Cyno SIRPγ-His
T4 chain: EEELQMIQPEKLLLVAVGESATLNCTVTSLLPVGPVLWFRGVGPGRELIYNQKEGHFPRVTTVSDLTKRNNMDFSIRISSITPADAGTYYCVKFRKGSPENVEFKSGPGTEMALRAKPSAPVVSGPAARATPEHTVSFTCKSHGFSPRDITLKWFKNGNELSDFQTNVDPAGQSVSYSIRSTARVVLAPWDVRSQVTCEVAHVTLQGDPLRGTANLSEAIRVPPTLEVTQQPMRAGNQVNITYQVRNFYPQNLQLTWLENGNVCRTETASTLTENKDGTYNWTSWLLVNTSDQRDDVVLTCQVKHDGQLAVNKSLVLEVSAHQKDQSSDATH
Assay: BLI Octet, captured scFv PPE, cyno SIRP
Description: Unique binders were further tested for binding to human SIRPαV1, human SIRPαV2, and human SIRPβ1. Briefly, biotinylated anti-V5 was immobilized onto streptavidin biosensors. Each V5-tagged SIRPγ scFv antibody as crude PPE was captured by the anti-V5 antibody. SIRP-His monomer protein at 500 nM was exposed to the biosensor for binding to SIRP scFv. The biosensors were then exposed to wash buffer to measure off-rate kinetics. The resulting association and dissociation kinetics (kdis) was analyzed. […] Similarly, cross-reactivity to cynomolgus monkey SIRPγ, cynomolgus monkey SIRPα, and cynomolgus monkey SIRPβ1 were tested.

Binder	binding result
B1	binds
B2	binds
B3	binds

The binders below were run against T5, human SIRPγ-His monomer protein (human, UniProt Q9P1W8 29-360) (assay: BLI Octet, V5-scFv PPE captured, SIRP-His 500 nM).
T5 construct: also called hSIRPγ
T5 sequence (Q9P1W8 29-360 limits assumed): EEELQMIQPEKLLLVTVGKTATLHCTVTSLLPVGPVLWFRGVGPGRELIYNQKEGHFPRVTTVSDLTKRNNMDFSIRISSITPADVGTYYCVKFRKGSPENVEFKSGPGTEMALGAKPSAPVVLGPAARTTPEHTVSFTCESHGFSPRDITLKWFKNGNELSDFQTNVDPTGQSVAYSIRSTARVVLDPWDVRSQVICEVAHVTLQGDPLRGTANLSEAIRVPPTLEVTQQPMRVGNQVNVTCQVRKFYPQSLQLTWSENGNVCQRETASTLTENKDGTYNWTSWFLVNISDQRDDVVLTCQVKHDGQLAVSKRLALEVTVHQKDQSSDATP

Binder	kdis [s⁻¹]
B1	> 0.01
B2	0.001 to 0.01
B3	0.001 to 0.01

Each binder was assayed against T6, cynomolgus monkey SIRPα on CHO cells (cynomolgus monkey, UniProt A0A2K5VYQ9 31-507) (assay: flow cytometry, CHO transfectants, anti-human IgG).
T6 construct: whole, on cells; also called Cyno SIRPα CHO
T6 sequence: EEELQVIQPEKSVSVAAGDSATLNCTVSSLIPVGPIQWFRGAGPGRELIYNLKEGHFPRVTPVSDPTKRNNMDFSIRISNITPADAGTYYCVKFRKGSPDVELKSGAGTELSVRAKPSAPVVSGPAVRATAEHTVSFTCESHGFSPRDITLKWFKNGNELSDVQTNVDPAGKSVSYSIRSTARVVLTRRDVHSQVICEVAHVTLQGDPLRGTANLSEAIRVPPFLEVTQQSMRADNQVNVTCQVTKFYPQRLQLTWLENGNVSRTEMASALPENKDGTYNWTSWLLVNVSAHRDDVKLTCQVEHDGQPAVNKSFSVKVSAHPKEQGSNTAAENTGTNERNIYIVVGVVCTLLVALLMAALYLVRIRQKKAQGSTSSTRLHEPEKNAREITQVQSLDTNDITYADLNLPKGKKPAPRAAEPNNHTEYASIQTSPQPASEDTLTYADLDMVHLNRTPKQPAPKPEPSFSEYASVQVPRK
Description: as §1

Binder	binding result
B4	no binding (tested: about 20 µg/mL)
B5	no binding (tested: about 20 µg/mL)
B6	no binding (tested: about 20 µg/mL)
B7	no binding (tested: about 20 µg/mL)
B8	no binding (tested: about 20 µg/mL)

The binders below were run against T1, human SIRPβ1 on CHO cells … (assay: flow cytometry, CHO transfectants, anti-human IgG).
Description: as §1

Binder	binding result
B4	no binding (tested: about 20 µg/mL)
B5	no binding (tested: about 20 µg/mL)
B6	no binding (tested: about 20 µg/mL)
B7	no binding (tested: about 20 µg/mL)
B8	no binding (tested: about 20 µg/mL)

Target: T7, Cynomolgus Monkey SIRPγ (plate-coated extracellular domain)
T7 construct: also called Cyno SIRPγ
T7 extracellular domain: T4 chain
Assay: ELISA, coated SIRP ECD (2 µg/mL), anti-human IgG, luminescence
Description: (§2) Selected hybridoma supernatants of Example 1 were tested for binding to human SIRPγ, cynomolgus monkey SIRPγ, human SIRPα V1, cynomolgus monkey SIRPα, human SIRPβ1, and cynomolgus monkey SIRPβ1 by enzyme-linked immunosorbent assay (ELISA). Briefly, 2 μg/mL of the extracellular domain of SIRP protein was coated onto high protein-binding plates and blocked. Undiluted supernatants were added to coated plates. The antibodies were detected by an anti-rat antibody and a chemiluminescent substrate. […] The data depict the relative luminescence units read by a plate-reader capable of detecting chemiluminescence.
(§3) FIGS. 2A-2G show binding curves of SIRPγ antibodies and human Fc isotype controls to human SIRPγ, cynomolgus monkey SIRPγ, human SIRPα V1, human SIRPα V2, and human SIRPβ1 by ELISA. […] Isotype control 2 was an unrelated human IgG1 antibody with irrelevant CDRs with no modifications in the Fc region. DNA was transiently transfected into Expi293F cells for 5 days. Antibodies were purified by Protein A from cell supernatants and analyzed in a titration via ELISA as previously described in FIG. 1 using an anti-human IgG antibody as the detection antibody.

Binder	EC50 (read off the curve) [µg/mL]
B4	~1
B5	~0.3
B6	~0.05
B7	~0.3
B8	~1

Each binder was assayed against T8, extracellular binding domain of human SIRPγ (plate-coated) (human, UniProt Q9P1W8 29-360) in the same assay as above.
T8 construct: also called hSIRPγ
Description: as §2, §3

T8 sequence (Q9P1W8 29-360 limits assumed): as the sequence (Q9P1W8 29-360 limits assumed) above

Binder	EC50 (read off the curve) [µg/mL]
B4	~0.5
B5	~0.2
B6	~0.03
B7	~0.08
B8	~0.8
